{
  "source": "patent US10526416B2",
  "about": "“Anti-HER3 antibodies and uses of same” (Yeda Research and Development Co. Ltd., priority 2014, dated 2020)",
  "tested_on": "phosphorylation of HER3, AKT and ERK",
  "assay": "NRG-induced phosphorylation of HER3, AKT and ERK in N87 cells (immunoblotting)",
  "assay_type": "cell-based, human",
  "details": "mAb 10 μg/ml 20 min, then NRG 20 ng/ml",
  "experimental": "(FIG. 9A) The indicated mAbs were checked for their capacity to compete with fluorescent dye labeled NRG. […] After washes, the labeled-NRG was added and incubated for 30 min at 4° C. Fluorescence intensity at 670 nm was determined following 3 final washes. (FIG. 9B) The ability of the mAbs to avoid NRG-induced phosphorylation of HER3, AKT and ERK, was studied with N87 cells. After 20 min treatment with the indicated mAbs (10 μg/ml) at 37° C., NRG (20 ng/ml) was added to the cells for 10 min. The cells were then lysed, and equal quantities of protein lysates were run on 9% bisacrylamide gel before immunoblotting with the indicated primary antibodies. (FIG. 9C) The capacity of mAb NG33 to avoid NRG-induced migration was checked with OVCAR-5 cells and the quantification reported in a histogram. […] Signals of triplicates were quantified. **** […] (ANOVA and post hoc tests).\nFIGS. 12A-D show a combination of two mAbs directed to two different epitopes of HER3. […] After ah incubation, the plate was washed 4 times with KREBS buffer, and the fluorescence intensity at 610 nm was measured using a fluorescence microplate reader. […] (FIG. 12D) The combination's capacity to modulate NRG-induced phosphorylation of HER3, AKT and ERK was evaluated using N87 cells. […] The cells were then lysed, and equal quantities of lysate protein were electrophoresed before immunoblotting, as indicated. […]",
  "data": [
    {"molecule": "XC252: anti-HER3 mAb generated as described in Chen X, et al. (1996); heavy and light chain SEQ ID NOs: 49 and 53 (antibody, V domains shown, VH chain of XC252 polypeptide; VL chain of XC252 polypeptide) VH: EVQLQQSGAELVRPGVSVKISCKGSGYTFTDYAMHWVKQSHAKSLEWIGVISTYYGDPRDNQKFKGKATMTVDKSSSTAYMELARLTSEDSAIYYCARGDYDWYAIDYWGQGTSVTVSS VL: DVVMTQTPLSLPVSLGDQASISCRSSQSIVHSDGNTYLEWYLQKPGQSPKLLIYKVSNRFSGVPDRFSGSGSGTDFTLKISRVEAEDLGVYYCFQGSHVPPTFGGGTKLEIK", "values": [
      {"measurement": "effect on NRG-induced HER3 phosphorylation and AKT and ERK activation", "value": "partly decrease the phosphorylation level of HER3"}
    ]}
  ]
}
